One block for each substance: values may come before it.
Tests used:
Assay in all cases: SEC; purified mutant TNFα alone on a size exclusion column; single peak; column and buffer not given
[1] = target: mTNFα mutant 1, [Q6R, N7T, S8P]mTNF-α(1–156) (mouse)
[2] = target: mTNFα mutant 2, [Q6R, N7T, S8P, A52S, D53E]mTNF-α(1–156) (mouse)
[3] = target: mTNFα mutant 3, [S30N, Q31R]mTNF-α(1–156) (mouse)
[4] = target: mTNFα mutant 4, [D71S, Y72H, ins 71_T_72]mTNF-α(1–156) (mouse)
[5] = target: mTNFα mutant 5, [P101Q, K102R, D103E, L110A]mTNF-α(1–156) (mouse)
[6] = target: mTNFα mutant 6, D71S, Y72H, ins 71_T_72, P101Q, K102R,D103E,L110A]mTNF-α(1–156) (mouse)
[7] = target: mTNFα mutant 7, [E88T]mTNF-α(1–156) (mouse)
[8] = target: mTNFα mutant 8, [L137R, K139D]mTNF-α(1–156) (mouse)
[9] = target: mTNFα mutant 9, [H20P, V22A, E24G, E27Q]mTNF-α(1–156) (mouse)
[10] = target: mTNFα mutant 10, [H20P, V22A, E24G, E27Q, S30N, Q31R, L137R, K139D]mTNF-α(1–156) (mouse)
[11] = target: mTNFα mutant 11, [Q130R]mTNF-α(1–156) (mouse)
[12] = target: mTNFα mutant 12, [D42E, K44R, F82I, I84V, E88T, Q130R]mTNF-α(1–156) (mouse)
[13] = target: mTNFα mutant 13, [M41V, V58I, V79I, V96I, V135I, V153I]mTNF-α(1–156) (mouse)
[14] = target: mTNFα mutant 14, [H20P, V22A, E24G, E27Q, M41V, V58I, V79I, V96I, V135I, V153I]mTNF-α(1–156) (mouse)
[15] = target: mTNFα mutant 15, [H20P, V22A, E24G, E27Q, S30N, Q31R, M41V, V58I, V79I, V96I, V135I, L137R, K139D, V153I]mTNF-α(1–156) (mouse)
[16] = target: mTNFα mutant 16, [L1V, Q6R, N7T, S8P, H20P, V22A, E24G, E27Q, S30N, Q31R, M41V, V58I, V79I, V96I, V135I, L137R, K139D, V153I]mTNF-α(1–156) (mouse)
[17] = target: mTNFα mutant 17, [L1V, Q6R, N7T, S8P, H20P, V22A, E24G, E27Q, S30N, Q31R, M41V, D42E, K44R, A52S, D53E, V58I, V79I, F82I, I84V, E88T, V96I, Q130R, V135I, L137R, K139D, V153I]mTNF-α(1–156) (mouse)
[18] = target: mTNFα mutant 18, [L1V, Q6R, N7T, S8P, H20P, V22A, E24G, E27Q, S30N, Q31R, M41V, V58I, V79I, V96I, V135I, V153I]mTNF-α(1–156) (mouse)
[19] = target: mTNFα mutant 19, [L1V, Q6R, N7T, S8P, H20P, V22A, E24G, E27Q, S30N, Q31R, M41V, D42E, K44R, V58I, V79I, V96I, P101Q, K102R, D103E, L110A, V135I, L137R, K139D, V153I]mTNF-α(1–156) (mouse)
[20] = target: mTNFα mutant 20, [L1V, Q6R, N7T, S8P, H20P, V22A, E24G, E27Q, S30N, Q31R, M41V, D42E, K44R, V58I, D71S, Y72H, ins 71_T_72, V79I, V96I, P101Q, K102R, D103E, L110A, V135I, L137R, K139D, V153I]mTNF-α(1–156) (mouse)

- stoichiometry N [1]: 3
Substance: mTNFα mutant 1, [Q6R, N7T, S8P]mTNF-α(1–156) (natural protein)

- stoichiometry N [2]: 3
Substance: mTNFα mutant 2, [Q6R, N7T, S8P, A52S, D53E]mTNF-α(1–156) (natural protein)

- stoichiometry N [3]: 3
Substance: mTNFα mutant 3, [S30N, Q31R]mTNF-α(1–156) (natural protein)

- stoichiometry N [5]: 3
Substance: mTNFα mutant 5, [P101Q, K102R, D103E, L110A]mTNF-α(1–156) (natural protein)

- stoichiometry N [6]: 3
Substance: mTNFα mutant 6, D71S, Y72H, ins 71_T_72, P101Q, K102R,D103E,L110A]mTNF-α(1–156) (natural protein)

- stoichiometry N [8]: 3
Substance: mTNFα mutant 8, [L137R, K139D]mTNF-α(1–156) (natural protein)

- stoichiometry N [11]: 3
Substance: mTNFα mutant 11, [Q130R]mTNF-α(1–156) (natural protein)

- stoichiometry N [13]: 3
Substance: mTNFα mutant 13, [M41V, V58I, V79I, V96I, V135I, V153I]mTNF-α(1–156) (natural protein)

- stoichiometry N [18]: 3
Substance: mTNFα mutant 18, [L1V, Q6R, N7T, S8P, H20P, V22A, E24G, E27Q, S30N, Q31R, M41V, V58I, V79I, V96I, V135I, V153I]mTNF-α(1–156) (natural protein)

The remaining lines, values behind:

Substance: mTNFα mutant 4, [D71S, Y72H, ins 71_T_72]mTNF-α(1–156) (natural protein)
- stoichiometry N [4]: 3

Substance: mTNFα mutant 7, [E88T]mTNF-α(1–156) (natural protein)
- stoichiometry N [7]: 3

Substance: mTNFα mutant 9, [H20P, V22A, E24G, E27Q]mTNF-α(1–156) (natural protein)
- stoichiometry N [9]: 3

Substance: mTNFα mutant 10, [H20P, V22A, E24G, E27Q, S30N, Q31R, L137R, K139D]mTNF-α(1–156) (natural protein)
- stoichiometry N [10]: 3

Substance: mTNFα mutant 12, [D42E, K44R, F82I, I84V, E88T, Q130R]mTNF-α(1–156) (natural protein)
- stoichiometry N [12]: 3

Substance: mTNFα mutant 14, [H20P, V22A, E24G, E27Q, M41V, V58I, V79I, V96I, V135I, V153I]mTNF-α(1–156) (natural protein)
- stoichiometry N [14]: 3

Substance: mTNFα mutant 15, [H20P, V22A, E24G, E27Q, S30N, Q31R, M41V, V58I, V79I, V96I, V135I, L137R, K139D, V153I]mTNF-α(1–156) (natural protein)
- stoichiometry N [15]: 3

Substance: mTNFα mutant 16, [L1V, Q6R, N7T, S8P, H20P, V22A, E24G, E27Q, S30N, Q31R, M41V, V58I, V79I, V96I, V135I, L137R, K139D, V153I]mTNF-α(1–156) (natural protein)
- stoichiometry N [16]: 3

Substance: mTNFα mutant 17, [L1V, Q6R, N7T, S8P, H20P, V22A, E24G, E27Q, S30N, Q31R, M41V, D42E, K44R, A52S, D53E, V58I, V79I, F82I, I84V, E88T, V96I, Q130R, V135I, L137R, K139D, V153I]mTNF-α(1–156) (natural protein)
- stoichiometry N [17]: 3

Substance: mTNFα mutant 19, [L1V, Q6R, N7T, S8P, H20P, V22A, E24G, E27Q, S30N, Q31R, M41V, D42E, K44R, V58I, V79I, V96I, P101Q, K102R, D103E, L110A, V135I, L137R, K139D, V153I]mTNF-α(1–156) (natural protein)
- stoichiometry N [19]: 3

Substance: mTNFα mutant 20, [L1V, Q6R, N7T, S8P, H20P, V22A, E24G, E27Q, S30N, Q31R, M41V, D42E, K44R, V58I, D71S, Y72H, ins 71_T_72, V79I, V96I, P101Q, K102R, D103E, L110A, V135I, L137R, K139D, V153I]mTNF-α(1–156) (natural protein)
- stoichiometry N [20]: 3

Source: article PMC3755337
